Results as given in the supplement of paper PMC10126150.
± gives the standard deviation of the averaged measurements.

System: ATP
Assay: switch fluorescence ratio, 500 uM ATP over buffer (Cy3 cluster intensity, sum of 5 cycles each) (fold (ratio)); higher = stronger signal-on switching upon ATP binding; sequences stand for … in TCGTCGGCAGCGTCAGATGTGTATAAGAGACAGTTTTTTTTTTTTTTTTTTTTTTTTT…TC
Details: aptamer strand: ATP DNA aptamer (quencher-CACCTGGGGGAGTATTGCGGAGGAAGG + anchor), 100 nM annealed; ATP concentration: 500 uM
How it was run: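 Imaging in selection buffer was followed by imaging after 15 min with 500 uM ATP at 22 °C, for Cy3-labelled switching-strand clusters annealed to 100 nM quencher-labelled ATP aptamer on a modified Illumina MiSeq flow-cell. Five of these buffer/ATP cycles ran, separated by NaOH stripping and re-annealing. The fluorescence ratio per cluster is summed target-cycle over summed buffer-cycle Cy3 intensity, averaged per switch-domain sequence; clusters outside 100-1000 RFU were removed.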
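Also: ATP exposure 15 min at 22 °C before imaging.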

| Sequence | switch fluorescence ratio |
| --- | --- |
| TCTTCACGTC | 1.003 ± 0.0029 |
| TCTTCACTAC | 1.25 ± 0.06 |
| TCTTCATGCG | 1.07 ± 0.053 |
| TCTTCGGTTG | 0.9805 ± 0.0096 |
| TCTTGACTAG | 1.06 ± 0.053 |
| TCTTGATGGG | 0.9811 ± 0.008 |
| TCTTGCATAA | 1.07 ± 0.076 |
| TCTTGGACGG | 0.985 ± 0.021 |
| TCTTGGGACG | 0.979 ± 0.042 |
| TCTTGGGTAT | 0.986 ± 0.035 |
| TCTTGTGAGT | 0.984 ± 0.012 |
| TCTTGTGG | 0.982 ± 0.012 |
| TCTTTACAAA | 1.03 ± 0.02 |
| TCTTTACAGG | 1.09 ± 0.067 |
| TCTTTATATG | 0.9989 ± 0.0033 |
| TCTTTCAGGA | 0.999 ± 0.013 |
| TCTTTGGAAC | 0.997 ± 0.034 |
| TCTTTGGGCT | 1.1 ± 0.19 |
| TCTTTGGGTT | 1.42 ± 0.92 |
| TCTTTGTTG | 1.02 ± 0.02 |
| TCTTTGTTTT | 0.991 ± 0.021 |
| TCTTTTACTG | 1.01 ± 0.033 |
| TCTTTTAGTA | 0.991 ± 0.035 |
| TCTTTTATTT | 0.998 ± 0.043 |
| TCTTTTGGGT | 0.9777 ± 0.0063 |
| TGAAAAAGG | 0.982 ± 0.019 |

| Sequence | switch fluorescence ratio |
| --- | --- |
| TGAAAAAGGG | 1.04 ± 0.027 |
| TGAAAAGGGA | 1.01 ± 0.017 |
| TGAAAATAG | 0.992 ± 0.018 |
| TGAAAATTTT | 0.99 ± 0.029 |
| TGAAAGATTA | 1.01 ± 0.029 |
| TGAAAGGCGT | 0.9862 ± 0.0072 |
| TGAAAGGGAT | 0.988 ± 0.077 |
| TGAAAGGGTA | 0.999 ± 0.022 |
| TGAAAGTTTT | 0.971 ± 0.025 |
| TGAAATATTT | 1.21 ± 0.21 |
| TGAAATGATC | 1.001 ± 0.0098 |
| TGAAATGGGT | 1.17 ± 0.24 |
| TGAACCAAGC | 1.08 ± 0.011 |
| TGAACCGCGA | 2.96 ± 0.18 |
| TGAACGGGGG | 1.02 ± 0.049 |
| TGAACTAAAT | 1.01 ± 0.024 |
| TGAACTTGGT | 0.929 ± 0.12 |
| TGAAGAGGGG | 0.994 ± 0.012 |
| TGAAGATGTG | 0.993 ± 0.02 |
| TGAAGCCTAC | 2.57 ± 0.28 |
| TGAAGGACCG | 0.952 ± 0.026 |
| TGAAGGCTTT | 1.01 ± 0.052 |
| TGAAGGGAAC | 1.06 ± 0.13 |
| TGAAGGGACG | 1.02 ± 0.015 |
| TGAAGGGGCT | 0.9833 ± 0.0052 |
| TGAAGGTAAC | 0.98 ± 0.012 |

| Sequence | switch fluorescence ratio |
| --- | --- |
| TGAAGTGAAC | 1.17 ± 0.22 |
| TGAAGTTCTT | 0.965 ± 0.011 |
| TGAATAAAGT | 0.978 ± 0.021 |
| TGAATAAATT | 1.02 ± 0.015 |
| TGAATAGAAC | 1.01 ± 0.015 |
| TGAATCATGG | 0.972 ± 0.022 |
| TGAATGACGG | 0.993 ± 0.026 |
| TGAATGAGAT | 0.967 ± 0.014 |
| TGAATGATTG | 0.995 ± 0.013 |
| TGAATGATTT | 0.967 ± 0.027 |
| TGAATGGGGG | 1.01 ± 0.045 |
| TGAATGTTTG | 1.01 ± 0.036 |
| TGAATTATAG | 1 ± 0.015 |
| TGAATTGGTG | 1.031 ± 0.0055 |
| TGAATTTAGA | 0.986 ± 0.025 |
| TGAATTTAGC | 1 ± 0.035 |
| TGAATTTAGT | 0.9729 ± 0.0089 |
| TGAATTTATA | 1.024 ± 0.0093 |
| TGAATTTATT | 1 ± 0.015 |
| TGAATTTTAG | 0.991 ± 0.01 |
| TGAATTTTTG | 0.989 ± 0.028 |
| TGACAAGTGG | 1.01 ± 0.015 |
| TGACAGTTGG | 1.017 ± 0.0055 |
| TGACATGGTG | 0.976 ± 0.018 |
